Here are results for two substances from PMC11826994.

For test [1], the target named is full-length histone H4 with L-isoaspartate at position 24 (H4isoD24), semisynthetic (UniProt P62805).
Test [2] concerns the target full-length histone H4 with the canonical Asp at position 24 (H4D24), semisynthetic (UniProt P62805).

Turning to “methyltransferase Set8 (from UniProt Q9NQR1 1-393) (enzyme)”, the k (1,obs), rate of H4K20 monomethylation by Set8 on 12-mer nucleosome arrays containing H4isoD24 (with Suv4-20h1 and AdoMet; HRMS) in test [1] came to 0.0016 min^–1. The substance further returned a k (1,obs), rate of H4K20 monomethylation by Set8 on 12-mer nucleosome arrays containing H4D24 (with Suv4-20h1 and AdoMet; HRMS) in test [2] of 0.0059 min^–1.
As for “methyltransferase Suv4-20h1 (from UniProt Q4FZB7 1-885) (enzyme)”, the k (2,obs), rate of H4K20me1 to H4K20me2 methylation by Suv4-20h1 on 12-mer nucleosome arrays containing H4isoD24 (with Set8 and AdoMet; HRMS) in test [1] is 0.002 min^–1. In test [2], this substance came in with a k (2,obs), rate of H4K20me1 to H4K20me2 methylation by Suv4-20h1 on 12-mer nucleosome arrays containing H4D24 (with Set8 and AdoMet; HRMS) of 0.033 min^–1.
